# “And” between values parts separate entries of the source, which are not always exact repeats. Equal entries are not always repeated.
# What was measured:
# SARS-CoV PLP2 = SARS-CoV PLP2 (Severe acute respiratory syndrome coronavirus, UniProt P0C6U8)
# [1] = test system: 12-mer oligopeptide […] containing the Gly818-Ala819 cleavage site
# [2] = test system: BCoV 12-mer peptide substrate (P6-P1′ FSLKGGA)
# [3] = test system: MHV 12-mer peptide substrate (P6-P1′ FSLKGGA)
# [4] = test system: T1, 10-mer oligopeptide RLKGGAPIKG (five P residues, five P′ residues)
# T1 sequence: RLKGGAPIKG
# [5] = test system: T2, 12-mer oligopeptide RELNGGAVTRYV containing the Gly180-Ala181 cleavage site
# T2 sequence: RELNGGAVTRYV
# [6] = test system: T3, 8-mer oligopeptide LKGGAPIK
# T3 sequence: LKGGAPIK
# [7] = test system: T4, 10-mer oligopeptide FRLKGGAPIK (six P residues, four P′ residues)
# T4 sequence: FRLKGGAPIK
# [8] = test system: T5, 14-mer Gly818-Ala819 site-containing oligopeptide VFRLKGGAPIKGVT
# T5 sequence: VFRLKGGAPIKGVT
# [9] = test system: T6, 11-mer Gly818-Ala819 site-containing oligopeptide VFRLKGGAPIK
# T6 sequence: VFRLKGGAPIK
# [10] = test system: Fluorogenic peptide substrate Abz-[…]-EDDNP
# [11] = test system: T7, 9-mer oligopeptide FRLKGGAPI
# T7 sequence: FRLKGGAPI
# [12] = test system: T8, 16-mer Gly818-Ala819 site-containing oligopeptide NVFRLKGGAPIKGVTF
# T8 sequence: NVFRLKGGAPIKGVTF
# [13] = test system: T9, 12-mer oligopeptide ISLKGGKIVSTC containing the Gly2740-Lys2741 cleavage site
# T9 sequence: ISLKGGKIVSTC
# [14] = test system: T10, 18-mer Gly818-Ala819 site-containing oligopeptide NNVFRLKGGAPIKGVTFG
# T10 sequence: NNVFRLKGGAPIKGVTFG
substance,measurement,setting,value
RELNGGAVTRYV [Gly180-Ala181],Cleavage % 12 hours,SARS-CoV PLP2,5 ± 1%
same,percentage of the cleavage after 12 hours of digestion,SARS-CoV PLP2,5%
"SARS-CoV papain-like protease 2 (SARS-CoV PLP2), residues 1414-1858 of pp1a, N-terminal 6xHis tag","Cleavage %, 2 h",[1],70.1%
same,"Cleavage %, 2 hours",[1],70% and 70.1%
same,"Cleavage %, 12 h",[1],100%
same,"Cleavage %, 12 hours",[1],100%
same,"Cleavage %, 2 hours",[2],27%
same,"Cleavage %, 12 hours",[2],85%
same,"Cleavage %, 2 hours",[3],21%
same,"Cleavage %, 12 hours",[3],80%
same,"Cleavage %, 2 hours",[4],14.8%
same,"Cleavage %, 12 hours",[4],56.4%
same,"Cleavage %, 12 hours",[5],5%
same,"Cleavage %, 2 hours",[6],11.4%
same,"Cleavage %, 12 hours",[6],44.7%
same,"Cleavage %, 2 hours",[7],49.9%
same,"Cleavage %, 12 hours",[7],100%
same,"Cleavage %, 2 hours",[8],67.6%
same,"Cleavage %, 12 hours",[8],100%
same,"Cleavage %, 2 hours",[9],52.9%
same,"Cleavage %, 12 hours",[9],100%
same,Kcat/Km (µM^-1min^-1) at pH 5.25,[10],0.06 µM^-1min^-1
same,Kcat/Km (µM^-1min^-1) at pH 6.05,[10],0.17 µM^-1min^-1
same,Kcat/Km (µM^-1min^-1) at pH 6.82,[10],0.31 µM^-1min^-1
same,Kcat/Km (µM^-1min^-1) at pH 7.42,[10],0.27 µM^-1min^-1
same,Kcat/Km (µM^-1min^-1) at pH 8.01,[10],0.3 µM^-1min^-1
same,Kcat/Km (µM^-1min^-1) at pH 8.65,[10],0.3 µM^-1min^-1
same,Kcat/Km (µM^-1min^-1) at pH 9.20,[10],0.21 µM^-1min^-1
same,Kcat/Km (µM^-1min^-1) at pH 9.80,[10],0.08 µM^-1min^-1
same,Km (µM) at pH 5.25,[10],21.4 µM
same,Km (µM) at pH 6.05,[10],64 µM
same,Km (µM) at pH 6.82,[10],65.5 µM
same,Km (µM) at pH 7.42,[10],77.2 µM
same,Km (µM) at pH 8.01,[10],72 µM
same,Km (µM) at pH 8.65,[10],71.5 µM
same,Km (µM) at pH 9.20,[10],68 µM
same,Km (µM) at pH 9.80,[10],70.5 µM
same,kcat (min^-1) at pH 5.25,[10],1.37 min^-1
same,kcat (min^-1) at pH 6.05,[10],11.9 min^-1
same,kcat (min^-1) at pH 6.82,[10],20.6 min^-1
same,kcat (min^-1) at pH 7.42,[10],19.8 min^-1
same,kcat (min^-1) at pH 8.01,[10],21.9 min^-1
same,kcat (min^-1) at pH 8.65,[10],22 min^-1
same,kcat (min^-1) at pH 9.20,[10],14.1 min^-1
same,kcat (min^-1) at pH 9.80,[10],5.99 min^-1
same,pH-independent kcat value (constant C from the pH-Log kcat plot),[10],25.4±3.43 min^-1
same,pH-independent kcat/Km value (constant C from the pH-Log (kcat/Km) plot),[10],0.31±0.02 min^-1µM^-1
same,true Km value,[10],corrected to 82 µM
same,"Cleavage %, 2 hours",[11],36.2%
same,"Cleavage %, 12 hours",[11],85.1%
same,"Cleavage %, 2 hours",[12],63%
same,"Cleavage %, 12 hours",[12],100%
same,"Cleavage %, 2 hours",[13],7%
same,"Cleavage %, 12 hours",[13],29%
same,"Cleavage %, 2 hours",[14],60.5%
same,"Cleavage %, 12 hours",[14],100%
